According to patent publication US20240325499A1, “FGF21 COMPOUND / GLP-1R AGONIST COMBINATIONS WITH OPTIMIZED ACTIVITY RATIO” (SANOFI, priority 2018, published 2024):

Experiments:
[1] = biological target: T1, human FGFR1c and KLB (Homo sapiens, UniProt P11362+Q86Z14); assay: In-Cell Western FGF21 receptor autophosphorylation (pFGFR ICW) in CHO cells; format: cell-based; settings: CHO cells overexpressing human FGFR1c and KLB; 5 min stimulus; n = 59
T1 construct: host or cells: CHO Flp-In cells
Experimental: (§1) The cellular in vitro efficacy of mature human FGF21 (SEQ ID NO: 2) or FGF21 variants was measured using a specific and highly sensitive In-Cell Western (ICW) assay. The ICW assay is an immunocytochemical assay usually performed in microplate format. CHO Flp-In cells (Invitrogen, Darmstadt, Germany) stably expressing the human FGFR1c (=FGF receptor 1c isoform) together with human beta-Klotho (KLB) were used for an FGF21 receptor autophosphorylation assay using In-Cell Western (Aguilar H. N. et al. (2010) PLoS ONE 5(4): e9965). In order to determine the receptor autophosphorylation level or downstream activation of the MAP kinase ERK1/2, 2×10^4 cells/well were seeded into 96-well plates and grown for 48 h. Cells were serum starved with serum-free medium Ham's F-12 Nutrient Mix with GlutaMAX (Gibco, Darmstadt, Germany) for 3-4 h. The cells were subsequently treated with increasing concentrations of either mature human FGF21 (SEQ ID NO: 2) for 5 min at 37° C. After incubation, the medium was discarded, and the cells were fixed in 3.7% freshly prepared para-formaldehyde for 20 min. […] Subsequently, cells were washed again with PBS plus 0.1% Tween20, and infrared dye signals were quantified with an Odyssey imager (LICOR, Bad Homburg, Germany). Results were normalized by quantification of DNA with TO-PRO3 dye (Invitrogen, Karlsruhe, Germany). […]

[2] = biological target: T1, human FGFR1c and KLB; assay: In-Cell Western ERK1/2 phosphorylation (pERK ICW) in CHO cells; format: cell-based; settings: CHO cells overexpressing human FGFR1c and KLB; 5 min stimulus; n = 61
Experimental: as §1

EC50 [1]: 4.8 ± 0.23 nM
EC50 [2]: 0.18 ± 0.02 nM
B1: mature human wild-type FGF21, FGF21(His29-Ser209) (protein, listed as Homo sapiens)
chain: HPIPDSSPLLQFGGQVRQRYLYTDDAQQTEAHLEIREDGTVGGAADQSPESLLQLKALKPGVIQILGVKTSRFLCQRPDGALYGSLHFDPEACSFRELLLEDGYNVYQSEAHGLPLHLPGNKSPHRDPAPRGPARFLPLPGLPPAPPEPPGILAPQPPDVGSSDPLSMVGPSQGRSPSYAS
